Laboratory results from PMC3536700, “Structural Basis for Feed-Forward Transcriptional Regulation of Membrane Lipid Homeostasis in Staphylococcus aureus”.

How the values were obtained:
SaFapR [1] = target: T1, SaFapR (Staphylococcus aureus RN4220, UniProt Q2FZ56 1-190); test: ITC; first dimer, sequential binding model, 25 C; ITC: 50 mM Tris-HCl pH 8, 150 mM NaCl, 25 C; EMSA: 20 mM Tris-HCl pH 8, 350 mM NaCl, 10 mM MgCl2, 5 mM DTT, 15 min room temperature, native 5% PAGE in 45 mM Tris-borate pH 8, 1 mM EDTA; conditions: protein: recombinant; tags: N-terminal His-tag removed with TEV protease; chain copies: 2
T1 sequence: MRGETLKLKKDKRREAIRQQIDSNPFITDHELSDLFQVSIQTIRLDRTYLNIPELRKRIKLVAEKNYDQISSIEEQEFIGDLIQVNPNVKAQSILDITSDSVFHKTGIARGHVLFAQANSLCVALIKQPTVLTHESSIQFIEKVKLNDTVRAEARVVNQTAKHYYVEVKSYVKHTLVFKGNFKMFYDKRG

SaFapR [2] = target: T1, SaFapR; test: ITC; second dimer, sequential binding model, 25 C; ITC: 50 mM Tris-HCl pH 8, 150 mM NaCl, 25 C; EMSA: 20 mM Tris-HCl pH 8, 350 mM NaCl, 10 mM MgCl2, 5 mM DTT, 15 min room temperature, native 5% PAGE in 45 mM Tris-borate pH 8, 1 mM EDTA; conditions: protein: recombinant; tags: N-terminal His-tag removed with TEV protease; chain copies: 2

B1: PfapR operator 40 bp (dsDNA)
DNA 1: GCCAATTATATACTACTATTAGTACCTAGTCTTAATTCCG
DNA 2: CGGAATTAAGACTAGGTACTAATAGTAGTATATAATTGGC
Q: Which Kd (SaFapR [1]) does the source give for B1 here?
A: The Kd was 0.5 ± 0.1 nM.

Q: And the Kd (SaFapR [2])?
A: The Kd was 51 ± 8 nM.
